Measured values reported in patent US8980604B2 (priority 2009, dated 2015).

Columns and labels:
[1] = target: T1, E. coli glycerol dehydrogenase (GlyDH, GldA), native (wild type) (Escherichia coli, UniProt P0A9S5); assay: Inhibition by product 1,2-propanediol, native GlyDH; type: biochemical; parameters: made in house; host or cells: E. coli BL21 star (DE3) ΔgldA::Cm with pETTOPO-gldA; conditions: read-out: loss of maximum activity
T1 sequence (P0A9S5 1-367): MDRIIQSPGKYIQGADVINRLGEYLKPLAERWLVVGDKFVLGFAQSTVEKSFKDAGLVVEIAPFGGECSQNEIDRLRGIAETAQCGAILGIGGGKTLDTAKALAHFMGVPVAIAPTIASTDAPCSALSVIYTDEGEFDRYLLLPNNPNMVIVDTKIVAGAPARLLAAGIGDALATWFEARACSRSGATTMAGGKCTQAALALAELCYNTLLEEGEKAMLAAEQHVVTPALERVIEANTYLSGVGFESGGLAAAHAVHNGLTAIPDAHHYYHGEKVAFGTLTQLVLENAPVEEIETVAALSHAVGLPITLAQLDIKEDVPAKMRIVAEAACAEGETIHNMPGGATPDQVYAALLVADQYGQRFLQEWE
Experimental: (§1) The 3 strains E. coli MG1655 pME101-VB01-gldA, E. coli MG1655 pME101-VB01-gldA*(A160T) and E. coli MG1655 pME101-VB01-gldA*(T120N) were cultivated in minimal medium with 10 g/l glucose as carbon source in 500 ml baffled Erlenmeyer flasks with 50 ml culture medium. The culture was carried out on a rotary shaker at 200 rpm. The temperature of the culture was maintained at 37° C. and the pH of the medium was buffered with MOPS (initial pH 6.8). Expression of the gene on the pME101-VB01 plasmid was induced by adding 100 μM IPTG at the beginning of the culture. The cultures were stopped at mid-exponential phase. The biomass was harvested by centrifugation, the supernatant was discarded and the pellet was stored at −20° C. before use.
(§2) Between 55-65 mg of E. coli biomass were resuspended in 9 ml of 100 mM Potassium phosphate pH 7, 0.1 mM DTT, 0.1 mM pyridoxal 5′-phosphate (PLP) and a protease inhibitor cocktail. Cells were sonicated on ice (Branson sonifier, 70 W) during four cycles of 30 sec with 30 sec intervals. After sonication, cells debris were removed by centrifugation at 12000 g for 30 min at 4° C. The crude extracts were desalted using an Econo-Pac 10 DG column (BioRad).

[2] = target: T1, E. coli glycerol dehydrogenase (GlyDH, GldA), native (wild type); assay: Kinetics toward NADH and inhibition by NAD+, crude extract, native GlyDH
[3] = target: GlyDH (glycerol dehydrogenase) of Nishise et al, 1984 (Cellulomonas); conditions: read-out: Ki (hydroxyacetone), literature; cited from earlier work
[4] = target: T2, E. coli glycerol dehydrogenase (GlyDH, GldA) mutant GlyDH*(A160T) (Escherichia coli, UniProt P0A9S5, A160T); assay: Inhibition by substrate hydroxyacetone (Dixon plot), GlyDH*(A160T); type: biochemical; parameters: made in house; host or cells: E. coli BL21 star (DE3) ΔgldA::Cm with pETTOPO-gldA*(A160T); conditions: crude extract
T2 sequence (P0A9S5 1-367 A160T): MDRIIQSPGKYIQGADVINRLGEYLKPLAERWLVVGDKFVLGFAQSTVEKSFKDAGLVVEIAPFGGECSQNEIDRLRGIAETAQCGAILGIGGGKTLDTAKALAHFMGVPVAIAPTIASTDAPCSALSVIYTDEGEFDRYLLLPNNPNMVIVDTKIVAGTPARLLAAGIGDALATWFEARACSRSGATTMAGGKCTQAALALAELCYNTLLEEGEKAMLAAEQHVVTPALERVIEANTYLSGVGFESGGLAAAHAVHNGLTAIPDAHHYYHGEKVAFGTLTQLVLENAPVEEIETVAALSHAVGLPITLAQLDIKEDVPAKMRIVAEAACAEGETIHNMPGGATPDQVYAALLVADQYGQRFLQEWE
Experimental: as §1, §2

[5] = target: T3, E. coli glycerol dehydrogenase (GlyDH, GldA) mutant GlyDH*(T120N) (Escherichia coli, UniProt P0A9S5, T120N); assay: Inhibition by substrate hydroxyacetone (Dixon plot), GlyDH*(T120N); type: biochemical; parameters: made in house; host or cells: E. coli BL21 star (DE3) ΔgldA::Cm with pETTOPO-gldA*(T120N); conditions: crude extract
T3 sequence (P0A9S5 1-367 T120N): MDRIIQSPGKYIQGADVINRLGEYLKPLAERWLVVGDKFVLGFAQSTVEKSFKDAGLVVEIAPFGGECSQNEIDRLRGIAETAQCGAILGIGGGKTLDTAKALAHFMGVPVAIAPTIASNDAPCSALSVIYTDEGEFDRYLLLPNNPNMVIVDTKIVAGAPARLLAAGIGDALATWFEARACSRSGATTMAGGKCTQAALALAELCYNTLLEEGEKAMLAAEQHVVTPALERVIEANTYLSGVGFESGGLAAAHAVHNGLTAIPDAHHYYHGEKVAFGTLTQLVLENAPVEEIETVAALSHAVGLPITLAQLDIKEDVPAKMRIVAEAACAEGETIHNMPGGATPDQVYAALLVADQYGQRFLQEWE
Experimental: as §1, §2

[6] = test system: Glycerol dehydrogenase (GlyDH); type: biochemical, E. coli; conditions: for Specific activity, Glycolaldehyde: substrate glycolaldehyde; for Specific activity, Glycolaldehyde / Specific activity, Hydroxyacetone / Specific activity, Methyl glyoxal: purified enzyme, pH 6.5, 30° C.; for Specific activity, Hydroxyacetone: substrate hydroxyacetone; for Specific activity, Methyl glyoxal: substrate methyl glyoxal
Experimental: The oxidation reaction was carried out in quartz cuvette cells filled with 1 ml of the mixture: 100 mM MES buffer pH 6.5 with 30 mM of ammonium sulphate, 0.1 mM of iron sulphate, 0.1 mM of NADH and around 0.5 μg of purified proteins. […] In all reactions, non enzymatic rates were subtracted from the observed initial reaction rates. Enzyme activities are reported as μmoles of substrate/min/mg of […] and represents averages for at least three purified enzyme preparations.
The purification process designed to purify the glycerol dehydrogenase overexpressed in E. coli is composed of two steps. […] Cell pellets were resuspended in 3 ml of 50 mM HEPES buffer pH 7.5 containing protease inhibitor cocktail (Roche) and homogenized by sonication (at 0° C., under aerobic conditions, in four cycles of 30 s with 2 minutes intervals between each cycle). Cells debris were eliminated by centrifugation (5 min 12000 g) and nucleic acids in cell homogenate were precipitated by a streptomycin sulphate treatment (13.3 mg/ml final concentration, 15 minutes, 0° C.). The streptomycin sulphate treated cell homogenate was harvested by centrifugation (5 min 12000 g), and contaminant proteins of the supernatant were eliminated by ammonium sulphate precipitation at a saturated concentration of 20%, at 4° C., with stirring over one hour. The precipitate was then removed by centrifugation (20 min, 8600 g, 4° C.) and discarded. A further portion of ammonium sulphate at a saturated concentration of 30% was added to the supernatant as previously and then centrifuged 30 minutes at 8600 g 4° C. collecting the precipitate. The precipitate was dissolved in 3 ml of 50 mM Hepes Buffer pH 7.5 with 1M ammonium sulphate before loading 2.5 ml sample onto a hydrophobic interaction chromatography column (Hitrap phenyl sepharose, GEhealthcare) connected to an AKTA purifier system and equilibrated with 50 mM Hepes Buffer pH 7.5 containing 1M ammonium sulphate. After washing with 20 ml of the same buffer, proteins were eluted with a 20 ml linear gradient of 50 mM Hepes Buffer pH 7.5 from 1 M to 0 M of ammonium sulphate. […] The protein concentration and purity were respectively determined with the Bradford reagent and with sodium dodecylsulfate polyacrylamide gel electrophoresis (FIG. 3).
The kinetic parameters were determined with Sigma Plot (Systat Software Inc, San Jose Calif.) by fitting to the Michaelis Menten equation using a non linear regression.

[7] = test system: Glycerol dehydrogenase (GlyDH); type: biochemical, E. coli; conditions: crude extract; hydroxyacetone as substrate
Experimental: (§3) Glycerol dehydrogenase activity was assayed by measuring the initial rate of NADH oxidation with a spectrophotometer at a wavelength of 340 nm and at a constant temperature of 30° C. […] Control assay (blank), lacking the substrate was run in parallel and the value measured for the control was subtracted to the value measured for the assay to take into account non-specific oxidation of NADH.
(§4) One unit of enzyme activity was defined as the amount of enzyme that consumed 1 μmol substrate per minute under the conditions of the assay. Specific enzyme activity was expressed as units per mg of protein.
(§5) Enzyme kinetics with regards to NADH were realised with increasing concentration of NADH between 0.025 and 0.4 mM.

[8] = substrate: CC(=O)CO; assay: purified protein, by the assay type; conditions: other: purified enzyme, pH 6.5, 30° C., 0.1 mM NADH, hydroxyacetone 0.1 to 15 mM
[9] = target: T4, Glycerol dehydrogenase (GlyDH) (Escherichia coli, UniProt P0A9S5, A160T); type: biochemical, E. coli; conditions: NAD+ 0.6-1.2-2.5-4 mM
T4 construct: made in house; host or cells: E. coli MG1655, plasmid pME101-VB01-gldA; crude extract, not purified
Experimental: as §3, §4, §5

## CC(O)CO (centres unmarked) [1,2-propanediol]
[1]
  inhibition at 40000 µM: 50%
  inhibition at 100000 µM: 65%

## NC(=O)c1ccc[n+]([C@@H]2O[C@H](COP(=O)([O-])OP(=O)(O)OC[C@H]3O[C@@H](n4cnc5c(N)ncnc54)[C@H](O)[C@@H]3O)[C@@H](O)[C@H]2O)c1 [NAD+]
[2]
  Ki: 430 µM

## CC(=O)CO [Hydroxyacetone, hydroxyacetone]
[3]
  Ki: 11.6 mM
[4]
  Ki Hydroxyacetone increase by a factor (vs native): more than 10
[5]
  Ki Hydroxyacetone increase by a factor (vs native): more than 10

B1: E. coli glycerol dehydrogenase (GlyDH, GldA), native (wild type) (Escherichia coli K-12) (protein)
chain: MDRIIQSPGKYIQGADVINRLGEYLKPLAERWLVVGDKFVLGFAQSTVEKSFKDAGLVVEIAPFGGECSQNEIDRLRGIAETAQCGAILGIGGGKTLDTAKALAHFMGVPVAIAPTIASTDAPCSALSVIYTDEGEFDRYLLLPNNPNMVIVDTKIVAGAPARLLAAGIGDALATWFEARACSRSGATTMAGGKCTQAALALAELCYNTLLEEGEKAMLAAEQHVVTPALERVIEANTYLSGVGFESGGLAAAHAVHNGLTAIPDAHHYYHGEKVAFGTLTQLVLENAPVEEIETVAALSHAVGLPITLAQLDIKEDVPAKMRIVAEAACAEGETIHNMPGGATPDQVYAALLVADQYGQRFLQEWE
[6]
  Specific activity, Glycolaldehyde: 148.89 +/− 19.36 U/mg
  Specific activity, Hydroxyacetone: 36.3 +/− 0.88 U/mg
  Specific activity, Methyl glyoxal: 57.77 +/− 3.81 U/mg
[7]
  Specific activity: 1240 ± 77 nmol/min/mg
[8]
  Km: 0.07 ± 0.02 mM

B2: E. coli glycerol dehydrogenase (GlyDH, GldA) mutant GlyDH*(A160T) (Escherichia coli K-12; A160T) (protein)
chain: MDRIIQSPGKYIQGADVINRLGEYLKPLAERWLVVGDKFVLGFAQSTVEKSFKDAGLVVEIAPFGGECSQNEIDRLRGIAETAQCGAILGIGGGKTLDTAKALAHFMGVPVAIAPTIASTDAPCSALSVIYTDEGEFDRYLLLPNNPNMVIVDTKIVAGTPARLLAAGIGDALATWFEARACSRSGATTMAGGKCTQAALALAELCYNTLLEEGEKAMLAAEQHVVTPALERVIEANTYLSGVGFESGGLAAAHAVHNGLTAIPDAHHYYHGEKVAFGTLTQLVLENAPVEEIETVAALSHAVGLPITLAQLDIKEDVPAKMRIVAEAACAEGETIHNMPGGATPDQVYAALLVADQYGQRFLQEWE
[6]
  Specific activity, Glycolaldehyde: 167.33 +/− 6.03 U/mg
  Specific activity, Hydroxyacetone: 40.5 +/− 0.85 U/mg
  Specific activity, Methyl glyoxal: 58.27 +/− 2.42 U/mg
[6]; three substrates, pH 6.5
  Kinetics compared with native enzyme: no significant differences
[9]
  Inhibition by NAD+ at the concentrations used: almost no inhibition
[7]
  Specific activity: 1140 ± 42 nmol/min/mg
